Experimental findings from paper PMC5227068 are described below.

By koff is commonly meant the rate constant with which the complex falls apart. Usually kon stands for a measure of how fast the partners come together. As a reminder, the Kd is the concentration at which binding is half-saturated.

Assay [1] concerns the target recombinant human CD36 (human), P16671. The experiment in a line: BLI; Octet Qke; hisCD36 immobilised on Ni-NTA biosensors, CIDR domain in kinetics buffer (PBS, 0.02% Tween-20, 100 ug/ml BSA, 0.005% sodium azide); association 600 or 900 s, dissociation 300 to 600 s; double-reference subtracted data fitted to a 1:1 binding model. For orientation: BLI is a label-free optical method that tracks binding on a fibre tip over time.

The target is the same in assay [2]. The experiment in a line: BLI; Octet Qke; hisCD36 immobilised on Ni-NTA biosensors, CIDR domains in solution; kinetics buffer (PBS, 0.02% Tween-20, 100 μg/ml bovine serum albumin, 0.005% sodium azide); association 600 or 900 s, dissociation 300 to 600 s; 1:1 fit.

recombinant human CD36 (human), P16671, sequence (P16671 whole entry, the tested form may be a part): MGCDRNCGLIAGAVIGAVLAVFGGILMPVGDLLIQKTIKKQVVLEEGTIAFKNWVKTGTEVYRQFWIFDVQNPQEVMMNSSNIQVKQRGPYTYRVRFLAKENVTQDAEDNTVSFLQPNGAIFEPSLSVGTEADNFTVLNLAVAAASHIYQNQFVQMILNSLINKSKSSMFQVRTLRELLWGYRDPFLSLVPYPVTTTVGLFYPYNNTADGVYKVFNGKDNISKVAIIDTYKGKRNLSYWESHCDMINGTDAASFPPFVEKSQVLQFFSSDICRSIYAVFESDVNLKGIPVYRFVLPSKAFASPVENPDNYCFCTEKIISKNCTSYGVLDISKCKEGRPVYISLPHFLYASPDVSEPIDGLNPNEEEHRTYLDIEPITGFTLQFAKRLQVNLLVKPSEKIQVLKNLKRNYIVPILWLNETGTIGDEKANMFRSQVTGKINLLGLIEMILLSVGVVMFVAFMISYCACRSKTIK

B1: P. reichenowi var85 CIDRα5 (domain or fragment)
chain: PECGVVRNGGTFQKNDEKEGDCSGKNEEYKPPEGVTEHDINFLYSGEGHEDMTKKLSGFCKKPEDKKGTRNEQWKCYYEKAENNMCKMTNKGANDNEHAKMMSFNDFFNFWVSHLLTDTINWRKELNRCIKASKSETCEKKCNKNCKCFQKWIEKKKVEWEEVKDQYDEQKDMDIFNPYWILEYDLEEQLLPIMEKNNSDLELIGKMKEIIGKNYKNKELKRTDVNAIDILLKHELKDATTCVENDPQENC
modifications: not checked
Turning to B1, in assay [1], the koff came out at 3.42e-05 s⁻¹ and the association rate constant (kon) was found to be 19800 M⁻¹ s⁻¹. In assay [2], the Kd is 1.7 nM.
